Test results reported in paper PMC5853329, “EjNAC3 transcriptionally regulates chilling-induced lignification of loquat fruit via physical interaction with an atypical CAD-like gene”.

Experiments:
EjNAC3 [1] = target: T1, EjNAC3 (Eriobotrya japonica (loquat), UniProt A0A2D3HXD3 1-352); experiment: EMSA; 5 mM Mg2+, poly(dI-dC), biotinylated probe 1 nM (legend; Methods 2 nM); LightShift kit binding buffer, 5 mM MgCl2, 2.5% glycerol, 0.05% NP-40, 50 ng/ul poly(dI-dC), 50 ng protein, 20 min room temperature; 6% native PAGE, 0.5x TBE; pH and salt not given; settings: protein: recombinant; tags: His (pET-32a fusion); chain copies: 2; blunt
T1 sequence: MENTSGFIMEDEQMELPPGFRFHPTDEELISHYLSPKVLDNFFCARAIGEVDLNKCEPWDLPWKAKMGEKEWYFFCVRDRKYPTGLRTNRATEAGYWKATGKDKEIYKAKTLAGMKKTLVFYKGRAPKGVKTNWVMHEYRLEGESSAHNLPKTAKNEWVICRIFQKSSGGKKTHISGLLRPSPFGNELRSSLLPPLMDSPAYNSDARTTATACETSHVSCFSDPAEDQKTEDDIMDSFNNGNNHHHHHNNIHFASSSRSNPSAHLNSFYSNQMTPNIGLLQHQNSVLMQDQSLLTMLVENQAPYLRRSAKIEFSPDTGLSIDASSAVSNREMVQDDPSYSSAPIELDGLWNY

EjNAC3 [2] = target: T1, EjNAC3; experiment: competition; cold probe 100 or 300 nM vs 1 nM biotinylated probe; reduces shift; LightShift kit binding buffer, 5 mM MgCl2, 2.5% glycerol, 0.05% NP-40, 50 ng/ul poly(dI-dC), 50 ng protein, 20 min room temperature; 6% native PAGE, 0.5x TBE; pH and salt not given; settings: protein: recombinant; tags: His (pET-32a fusion); chain copies: 2; label: none; blunt

Binder | binding result (EjNAC3 [1]) | binding result (EjNAC3 [2])
EjCAD-like promoter probe (-502 to -454) (dsDNA) DNA 1: GTCCTATACGTAATCTTATACTCCAAATAAAATTAGGAATGCAGCATAA DNA 2: TTATGCTGCATTCCTAATTTTATTTGGAGTATAAGATTACGTATAGGAC | binds | 
EjCAD-like promoter cold probe (-502 to -454) (dsDNA) DNA 1: GTCCTATACGTAATCTTATACTCCAAATAAAATTAGGAATGCAGCATAA DNA 2: TTATGCTGCATTCCTAATTTTATTTGGAGTATAAGATTACGTATAGGAC |  | binds
